Experiments:
[1] = target: cdk2.cyclin A complex (recombinant, Upstate), P24941
[2] = target: T1, full-length HTm4 protein (human, recombinant, His tag cleaved with Factor Xa)
T1 chain: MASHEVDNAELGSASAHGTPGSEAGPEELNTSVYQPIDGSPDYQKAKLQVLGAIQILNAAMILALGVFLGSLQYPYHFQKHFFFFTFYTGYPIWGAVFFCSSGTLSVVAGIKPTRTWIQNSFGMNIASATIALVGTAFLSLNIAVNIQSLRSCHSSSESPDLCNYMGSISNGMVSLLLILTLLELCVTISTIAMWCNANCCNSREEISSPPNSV

B1: KAP (wild-type, full-length KAP protein) (protein)
chain: MKPPSSIQTSEFDSSDEEPIEDEQTPIHISWLSLSRVNCSQFLGLCALPGCKFKDVRRNVQKDTEELKSCGIQDIFVFCTRGELSKYRVPNLLDLYQQCGIITHHHPIADGGTPDIASCCEIMEELTTCLKNYRKTLIHCYGGLGRSCLVAACLLLYLSDTISPEQAIDSLRDLRGSGAIQTIKQYNYLHEFRDKLAAHLSSRDSQSRSVSR
What does the source list for B1?
Km of KAP phosphatase activity in the absence of HTm4 (substrate active cdk2.cyclin A) [1]: Vmax and Km for the samples in the presence and absence of HTm4 are 17.5, 1.30 nM/min, and 8.33, 2.68 µM, respectively; Vmax of KAP phosphatase activity in the absence of HTm4 (substrate active cdk2.cyclin A) [1]: Vmax and Km for the samples in the presence and absence of HTm4 are 17.5, 1.30 nM/min, and 8.33, 2.68 µM, respectively; Km of KAP phosphatase activity in the presence of HTm4 [2]: A parallel increase in Km (to 8.33 µM) was also observed; Vmax of KAP phosphatase activity in the presence of HTm4 [2]: the Vmax of KAP phosphatase activity increased dramatically to 17.5 nM/min; dephosphorylating activity of KAP toward phosphorylated cdk2 [2]: HTm4 increases the dephosphorylating activity of KAP toward phosphorylated cdk2 by more than 6-fold

— patent US20080153749
